Data as given in the supplement of paper PMC10598134.
± gives the standard deviation.

Experiment: collision cross section of modified peptide (TIMS, N2, iRT-aligned); higher = larger / more extended gas-phase ion
Summary of the method: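 Collision cross section values rest on the Mason-Schamp equation applied to calibrated, run-aligned mobility data from synthetic peptides. Mobility (1/K0) was calibrated with three reference ions and aligned per run to the median iRT peptide deviation, and 1–3 technical replicates of the most abundant feature per charge state were averaged. Data came from a timsTOF Pro/HT in dda-PASEF mode (nitrogen, ~2.4 mbar) after a 120-min nanoflow C18 gradient at 60 °C.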

[1] = charge state: 3, modification: Biotin
[2] = charge state: 3, modification: Citrullination (R)
[3] = charge state: 2, modification: hydroxyisobutyryl
[4] = charge state: 3, modification: hydroxyisobutyryl
[5] = charge state: 2, modification: GlyGly (K)
[6] = charge state: 3, modification: GlyGly (K)
[7] = charge state: 2, modification: Glutarylation
[8] = charge state: 3, modification: Glutarylation
[9] = charge state: 2, modification: Butyryl
[10] = charge state: 3, modification: Trimethyl (K)
[11] = charge state: 2, modification: Methyl (K)
[12] = charge state: 3, modification: Methyl (K)
[13] = charge state: 3, modification: Butyryl
[14] = charge state: 2, modification: Dimethyl (K)
[15] = charge state: 3, modification: Dimethyl (K)
[16] = charge state: 2, modification: Phospho (Y)
[17] = charge state: 2, modification: Acetyl (K)
[18] = charge state: 2, modification: Nitro (Y)
[19] = charge state: 3, modification: Nitro (Y)
[20] = charge state: 2, modification: Succinyl
[21] = charge state: 3, modification: Methyl (R)
[22] = charge state: 2, modification: Methyl (R)
[23] = charge state: 3, modification: Succinyl
[24] = charge state: 2, modification: Biotin
[25] = charge state: 2, modification: Hydroxyproline
[26] = charge state: 2, modification: Malonyl

GSLGAQKLANTCFNEIEK [_GSLGAQK(Biotin)LANTCFNEIEK_]
collision cross section [1]: 538.06 ± 0.96 Å²

PGTPAGYGRGR [_PGTPAGYGR(Citrullination (R))GR_]
collision cross section (charge state: 2, modification: Citrullination (R)): 345.81 ± 4.8 Å² | collision cross section [2]: 431.14 Å²

ASDTSSETVFGKR [_ASDTSSETVFGK(hydroxyisobutyryl)R_]
collision cross section [3]: 403.06 ± 1.1 Å² | collision cross section [4]: 485.06 ± 0.47 Å²

SGNLTEDDKHNNAK [_SGNLTEDDK(GlyGly (K))HNNAK_]
collision cross section [5]: 432.48 ± 1.6 Å² | collision cross section [6]: 495.64 ± 0.34 Å²

VGVEVPDVNIEGPEGKLK [_VGVEVPDVNIEGPEGK(Gluratylation)LK_]
collision cross section [7]: 461.98 ± 1.5 Å² | collision cross section [8]: 531 ± 29 Å²

DDSFLGKLGGTLAR [_DDSFLGK(GlyGly (K))LGGTLAR_]
collision cross section [5]: 434.49 ± 0.96 Å² | collision cross section [6]: 484.35 ± 1.9 Å²

LAEEENKAK [_LAEEENK(Butyryl)AK_]
collision cross section [9]: 353.86 ± 0.84 Å²

TQAYQDQKPGTSGLR [_TQAYQDQK(Trimethyl (K))PGTSGLR_]
collision cross section [10]: 476 ± 1.5 Å²

GTISAPGKVVTAAAQAK [_GTISAPGK(Methyl (K))VVTAAAQAK_]
collision cross section [11]: 466.62 ± 2.3 Å² | collision cross section [12]: 495.95 ± 2.3 Å²

LLEEEDSKLK [_LLEEEDSK(hydroxyisobutyryl)LK_]
collision cross section [3]: 385.85 ± 5.2 Å²

LTEKELAEAASK [_LTEK(Butyryl)ELAEAASK_]
collision cross section [9]: 394.05 ± 1.5 Å² | collision cross section [13]: 455.88 Å²

LDEKENLSAK [_LDEK(Dimethyl (K))ENLSAK_]
collision cross section [14]: 364.75 ± 0.28 Å² | collision cross section [15]: 441.27 Å²

SYHLQIVTK [_SY(Phospho (Y))HLQIVTK_]
collision cross section [16]: 357.29 ± 0.065 Å² | collision cross section (charge state: 3, modification: Phospho (Y)): 461.35 ± 0.12 Å²

SGKFTQQDIDEAK [_SGK(Acetyl (K))FTQQDIDEAK_]
collision cross section [17]: 412.93 ± 2.8 Å²

LGDVYVNDAFGTAHR [_LGDVY(Nitro (Y))VNDAFGTAHR_]
collision cross section [18]: 443.1 ± 0.55 Å² | collision cross section [19]: 500.36 ± 1.2 Å²

AAINQKLIETGER [_AAINQK(Dimethyl (K))LIETGER_]
collision cross section [14]: 413.1 ± 1.4 Å² | collision cross section [15]: 468.56 ± 2.6 Å²

SGKFTQQDIDEAK [_SGK(Succinyl)FTQQDIDEAK_]
collision cross section [20]: 414.39 ± 0.54 Å²

FSAYIKNSNPALNDNLEK [_FSAYIK(Trimethyl (K))NSNPALNDNLEK_]
collision cross section [10]: 516.88 ± 0.87 Å²

AGPNASIISLKSDK [_AGPNASIISLK(Formyl)SDK_]
collision cross section (charge state: 2, modification: Formyl): 404.66 ± 0.43 Å²

ASAISIKLGSSK [_ASAISIK(Dimethyl (K))LGSSK_]
collision cross section [14]: 373.07 ± 0.36 Å² | collision cross section [15]: 447.62 Å²

YGRGQLNYPLPDFSK [_YGR(Methyl (R))GQLNYPLPDFSK_]
collision cross section [21]: 496.04 ± 0.79 Å²

FSHSVQNSERGK [_FSHSVQNSER(Methyl (R))GK_]
collision cross section [22]: 405.91 ± 1.3 Å² | collision cross section [21]: 465.06 ± 2.1 Å²

LQAAYAGDKADDIQK [_LQAAYAGDK(Succinyl)ADDIQK_]
collision cross section [20]: 436.68 ± 1.4 Å² | collision cross section [23]: 489.74 ± 2.1 Å²

ASAISIKLGSSK [_ASAISIK(Succinyl)LGSSK_]
collision cross section [20]: 372.2 ± 0.24 Å²

VYVGNLGTGAGK [_VY(Nitro (Y))VGNLGTGAGK_]
collision cross section [18]: 354.85 ± 1.5 Å²

PSVSTKLISK [_PSVSTK(Biotin)LISK_]
collision cross section [24]: 375.49 Å²

SVSSSSYR [_SVSSSSY(Phospho (Y))R_]
collision cross section [16]: 317.55 ± 0.69 Å²

LLEQKTQESQK [_LLEQK(Gluratylation)TQESQK_]
collision cross section [7]: 402.96 ± 0.5 Å²

IHNAENIQPGEQKYEYK [_IHNAENIQPGEQK(Gluratylation)YEYK_]
collision cross section [7]: 490.8 ± 1.2 Å² | collision cross section [8]: 532.09 ± 1.1 Å²

SYGIPYIETSAK [_SY(Phospho (Y))GIPYIETSAK_]
collision cross section [16]: 390.55 ± 0.64 Å²

GLPGEPGPRGLLGPK [_GLPGEP(Hydroxyproline)GPRGLLGPK_]
collision cross section [25]: 409.23 ± 0.28 Å²

DKALPLEAEVAPVK [_DK(Malonyl)ALPLEAEVAPVK_]
collision cross section [26]: 414.83 ± 0.6 Å²

GTISAPGKVVTAAAQAK [_GTISAPGK(GlyGly (K))VVTAAAQAK_]
collision cross section [5]: 456.01 ± 1.6 Å² | collision cross section [6]: 541.49 ± 0.36 Å²

PASGAGAGAGAGKR [_PASGAGAGAGAGK(Gluratylation)R_]
collision cross section [7]: 357.87 ± 1.2 Å² | collision cross section [8]: 467.6 ± 2 Å²

SFSASGAQIVSR [_SFSASGAQIVS(HexNAc (ST))R_]
collision cross section (charge state: 2, modification: HexNAc (ST)): 387.57 ± 0.63 Å²

GFCFITYTDEEPVKK [_GFCFITYTDEEPVK(Gluratylation)K_]
collision cross section [7]: 471.64 ± 1.5 Å²

DSSPTTNSKLSALQR [_DSSPTTNSK(Biotin)LSALQR_]
collision cross section [24]: 447.16 ± 2.3 Å² | collision cross section [1]: 519.36 ± 0.34 Å²

DHLSDKESK [_DHLSDK(GlyGly (K))ESK_]
collision cross section [5]: 353.15 ± 0.53 Å² | collision cross section [6]: 411.26 Å²

PANEKATDDYHYEK [_PANEK(Succinyl)ATDDYHYEK_]
collision cross section [20]: 446.9 ± 1.1 Å² | collision cross section [23]: 500.9 ± 1.6 Å²

VLATQPGPGRGR [_VLATQPGPGR(Methyl (R))GR_]
collision cross section [22]: 376.85 ± 0.74 Å² | collision cross section [21]: 455.74 ± 9.5 Å²

HELQANCYEEVKDR [_HELQANCYEEVK(Methyl (K))DR_]
collision cross section [11]: 444.71 Å² | collision cross section [12]: 527.11 ± 0.72 Å²

TPNLYIYSKK [_TPNLYIYSK(Acetyl (K))K_]
collision cross section [17]: 385.54 ± 0.92 Å²

LDHLAEKFR [_LDHLAEK(Trimethyl (K))FR_]
collision cross section [10]: 436.32 ± 0.025 Å²

VGEFSGANKEK [_VGEFSGANK(Dimethyl (K))EK_]
collision cross section [14]: 376.33 ± 1.2 Å² | collision cross section [15]: 440.62 ± 2.8 Å²

GFPGIQGRK [_GFP(Hydroxyproline)GIQGRK_]
collision cross section [25]: 339.07 Å² | collision cross section (charge state: 3, modification: Hydroxyproline): 407.07 Å²

DLYEPSHGAK [_DLY(Nitro (Y))EPSHGAK_]
collision cross section [18]: 364.04 ± 0.94 Å² | collision cross section [19]: 435.87 ± 1.2 Å²

LEKTIDDLEEK [_LEK(GlyGly (K))TIDDLEEK_]
collision cross section [5]: 403.14 ± 0.36 Å² | collision cross section [6]: 473.69 ± 1.1 Å²

SPPLPEHQKIPCNSAEPK [_SPPLPEHQK(hydroxyisobutyryl)IPCNSAEPK_]
collision cross section [4]: 544.57 Å²

PSVGSQSNQAGQGKR [_PSVGSQSNQAGQGK(Biotin)R_]
collision cross section [24]: 421.78 ± 0.67 Å² | collision cross section [1]: 480.61 ± 0.34 Å²

DAEAAEATAEGALKAEK [_DAEAAEATAEGALK(Dimethyl (K))AEK_]
collision cross section [14]: 461.24 ± 1.8 Å² | collision cross section [15]: 536.26 ± 0.61 Å²

VLDSGAPIKIPVGPETLGR [_VLDSGAPIK(hydroxyisobutyryl)IPVGPETLGR_]
collision cross section [3]: 472.45 ± 0.87 Å² | collision cross section [4]: 522.22 ± 1.2 Å²

VGLQVVAVKAPGFGDNR [_VGLQVVAVK(Methyl (K))APGFGDNR_]
collision cross section [11]: 454.02 ± 2.2 Å² | collision cross section [12]: 491.77 ± 3.2 Å²

GSELQNYFTK [_GSELQNY(Nitro (Y))FTK_]
collision cross section [18]: 363.07 ± 0.55 Å²

LEKTIDDLEEK [_LEK(Malonyl)TIDDLEEK_]
collision cross section [26]: 405.85 ± 0.59 Å²

IVSGKDYNVTANSK [_IVSGK(Gluratylation)DYNVTANSK_]
collision cross section [7]: 417.68 ± 1.5 Å² | collision cross section [8]: 473.57 ± 2.4 Å²

LTSLNVKYNNDK [_LTSLNVK(Succinyl)YNNDK_]
collision cross section [20]: 411.65 ± 1.1 Å²

TTGFYSGFSEVAEKR [_TTGFYSGFSEVAEK(Dimethyl (K))R_]
collision cross section [14]: 453.39 ± 1.3 Å² | collision cross section [15]: 504.73 ± 0.75 Å²

VGLQVVAVKAPGFGDNR [_VGLQVVAVK(Trimethyl (K))APGFGDNR_]
collision cross section (charge state: 2, modification: Trimethyl (K)): 473 Å² | collision cross section [10]: 497.24 ± 1.6 Å²

VSPASSVDSNIPSSQGYKK [_VSPASSVDSNIPSSQGYK(Butyryl)K_]
collision cross section [9]: 463.23 ± 2.7 Å² | collision cross section [13]: 559.88 ± 1.1 Å²

DDSFLGKLGGTLAR [_DDSFLGK(Biotin)LGGTLAR_]
collision cross section [24]: 427.7 ± 0.62 Å² | collision cross section [1]: 505.13 Å²

LEQVEKELLR [_LEQVEK(Dimethyl (K))ELLR_]
collision cross section [14]: 388.36 ± 0.25 Å² | collision cross section [15]: 444.88 ± 2.1 Å²

VNIGQGSHPQKVK [_VNIGQGSHPQK(Methyl (K))VK_]
collision cross section [11]: 409.02 ± 0.54 Å² | collision cross section [12]: 465.41 ± 17 Å²

TEVLSPNSKVESK [_TEVLSPNSK(GlyGly (K))VESK_]
collision cross section [5]: 404.73 ± 5.7 Å² | collision cross section [6]: 492.13 ± 0.88 Å²

LAEEENKAK [_LAEEENK(Propionyl)AK_]
collision cross section (charge state: 2, modification: Propionyl): 352.31 ± 0.33 Å²

VTRYPILGIPQAHR [_VTR(Citrullination (R))YPILGIPQAHR_]
collision cross section [2]: 520.51 ± 0.78 Å²
